Measurements from article PMC12826058.
Changes are numbered by the printed parent chain.

Legend:
Assay in all cases: SPR
[1] = test system: His6-AdiY (Escherichia coli K-12 MG1655); settings: pH 6.0, phosphate; 1:4 DNA:protein; SPR (Biacore T200, SA chip), 25 C, 50 mM sodium phosphate pH 6.0-7.0 (50 mM citrate at pH 5.5 and 5.8), 250 mM NaCl, 2% glycerol, 2 mM DTT, 0.005% P20; 1:1 …
[2] = molecular target: T1, His6-AdiY (Escherichia coli K-12 MG1655) (UniProt P33234); settings: SPR (Biacore T200, SA chip), 25 C, 50 mM sodium phosphate pH 6.0-7.0 (50 mM citrate at pH 5.5 and 5.8), 250 mM NaCl, 2% glycerol, 2 mM DTT, 0.005% P20; 1:1 …
T1 sequence: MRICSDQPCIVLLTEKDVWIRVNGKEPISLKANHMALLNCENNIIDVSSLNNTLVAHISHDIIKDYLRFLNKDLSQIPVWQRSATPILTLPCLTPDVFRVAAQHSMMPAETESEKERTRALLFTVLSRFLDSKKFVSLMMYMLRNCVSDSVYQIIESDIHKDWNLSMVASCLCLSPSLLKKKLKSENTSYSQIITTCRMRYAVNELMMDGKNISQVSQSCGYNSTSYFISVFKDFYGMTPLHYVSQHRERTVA

[3] = molecular target: T2, His6-AdiY-H34A/H60A H34A;H60A (Escherichia coli K-12 MG1655) (UniProt P33234); settings: SPR (Biacore T200, SA chip), 25 C, 50 mM sodium phosphate pH 6.0-7.0 (50 mM citrate at pH 5.5 and 5.8), 250 mM NaCl, 2% glycerol, 2 mM DTT, 0.005% P20; 1:1 …
T2 sequence: T1 sequence with H34A, H60A

Substance | Kd [1] [nM] | Kd [2] [nM] | binding [2] | binding [3]
PadiA (adiA promoter) | 170 |  |  | 
PadiC (adiC promoter) | 120 |  |  | 
TCTACGGTATGACGCCGCTGCATTATGTTAGTCAGCACAGAGAACGCACTGTCGCCTGATTTTTAACCTTAACGAAGAGCTATATTAATAACGGCATCAGCGATAACCCGGTCGATAATAATTCAACTATCGAATGCAGGCGTATGATATGACGTAATTTATTGTCACGAAGCTCGCCTTCGCAGGAGTTTAATT (double strand) [PadiC (adiC promoter)] |  | 120 | binds | no binding
TGCTTACCCGGTTATGAAGGAATCTTCGTTGCGGGCAAGTATCTTCCGGCCTTTTCGGGCTGTAAAGCGCGTGAAAAACAAACATTTTTGAAATATTTAGTTTTATAAACAATACGTTATGTGATTATTTTAAATTATTTTCACTGCTTATTATCGACGGCTAAACTATTTTTTTGGCTGATACTGATATCGTCT (double strand) [PadiA (adiA promoter)] |  | 170 | binds | no binding
